T1: EsCas13d, nuclease-dead (Eubacterium siraeum, UniProt B0MS50, R295A;H300A;R849A;H854A)
T1 sequence: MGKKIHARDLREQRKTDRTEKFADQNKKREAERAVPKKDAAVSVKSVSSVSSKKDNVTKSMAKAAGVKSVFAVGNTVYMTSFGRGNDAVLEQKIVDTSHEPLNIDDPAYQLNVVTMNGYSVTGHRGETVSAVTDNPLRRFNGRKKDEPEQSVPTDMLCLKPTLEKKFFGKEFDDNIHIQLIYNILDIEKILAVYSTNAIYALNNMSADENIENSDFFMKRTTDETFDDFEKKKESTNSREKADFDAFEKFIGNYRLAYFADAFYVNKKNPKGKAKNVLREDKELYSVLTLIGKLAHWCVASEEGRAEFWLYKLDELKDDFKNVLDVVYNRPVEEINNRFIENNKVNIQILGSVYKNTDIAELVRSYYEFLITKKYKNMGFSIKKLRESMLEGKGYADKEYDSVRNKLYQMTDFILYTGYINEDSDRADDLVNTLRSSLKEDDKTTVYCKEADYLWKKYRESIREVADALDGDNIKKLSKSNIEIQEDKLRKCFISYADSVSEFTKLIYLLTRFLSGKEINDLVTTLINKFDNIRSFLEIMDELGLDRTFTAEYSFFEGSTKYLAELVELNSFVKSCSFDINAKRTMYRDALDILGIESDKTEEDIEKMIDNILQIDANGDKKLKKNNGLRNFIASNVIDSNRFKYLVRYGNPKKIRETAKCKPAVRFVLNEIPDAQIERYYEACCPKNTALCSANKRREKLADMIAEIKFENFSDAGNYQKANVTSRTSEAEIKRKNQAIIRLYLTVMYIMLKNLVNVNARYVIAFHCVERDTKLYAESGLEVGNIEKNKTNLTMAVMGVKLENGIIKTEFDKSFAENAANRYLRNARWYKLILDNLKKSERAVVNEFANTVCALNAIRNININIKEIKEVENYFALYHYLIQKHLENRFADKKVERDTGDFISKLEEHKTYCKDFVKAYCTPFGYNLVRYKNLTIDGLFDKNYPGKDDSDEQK

B1: target 1 insG 3' of 14,insU 3' of 5 (mixed)
RNA 1: CACCCGUGCAAAAAUGCAGGGGUCUAAAACUGAGCGGAUAACCUCUCUAUGG
RNA 2: GGGAAUGGAUCCACAUCUACGAAUUCGUACCAUAGAGAGGGUUAUCCGUCUCACCGAGAUCGGAAGAGCACACGU
B2: target 1 complement block 7-10 (mixed)
RNA 1: CACCCGUGCAAAAAUGCAGGGGUCUAAAACUGAGCGGAUAACCUCUCUAUGG
RNA 2: GGGAAUGGAUCCACAUCUACGAAUUCGUACCAUAGAGAGGUAUAGCGCUCACCGAGAUCGGAAGAGCACACGU
B3: target 1 insA 3' of 17,insG 3' of 7 (mixed)
RNA 1: CACCCGUGCAAAAAUGCAGGGGUCUAAAACUGAGCGGAUAACCUCUCUAUGG
RNA 2: GGGAAUGGAUCCACAUCUACGAAUUCGUACCAUAGAAGAGGUUAUCGCGCUCACCGAGAUCGGAAGAGCACACGU
B4: target 1 U11G,A16G (mixed)
RNA 1: CACCCGUGCAAAAAUGCAGGGGUCUAAAACUGAGCGGAUAACCUCUCUAUGG
RNA 2: GGGAAUGGAUCCACAUCUACGAAUUCGUACCAUAGGGAGGGUAUCCGCUCACCGAGAUCGGAAGAGCACACGU
B5: target 1 C7A,A14U (mixed)
RNA 1: CACCCGUGCAAAAAUGCAGGGGUCUAAAACUGAGCGGAUAACCUCUCUAUGG
RNA 2: GGGAAUGGAUCCACAUCUACGAAUUCGUACCAUAGAGUGGUUAUACGCUCACCGAGAUCGGAAGAGCACACGU
B6: target 1 insU 3' of 9,insU 3' of 4 (mixed)
RNA 1: CACCCGUGCAAAAAUGCAGGGGUCUAAAACUGAGCGGAUAACCUCUCUAUGG
RNA 2: GGGAAUGGAUCCACAUCUACGAAUUCGUACCAUAGAGAGGUUAUUCCGCUUCACCGAGAUCGGAAGAGCACACGU
B7: target 1 insU 3' of 7,insC 3' of 3 (mixed)
RNA 1: CACCCGUGCAAAAAUGCAGGGGUCUAAAACUGAGCGGAUAACCUCUCUAUGG
RNA 2: GGGAAUGGAUCCACAUCUACGAAUUCGUACCAUAGAGAGGUUAUCUCGCUCCACCGAGAUCGGAAGAGCACACGU
B8: target 1 A1G,U8G (mixed)
RNA 1: CACCCGUGCAAAAAUGCAGGGGUCUAAAACUGAGCGGAUAACCUCUCUAUGG
RNA 2: GGGAAUGGAUCCACAUCUACGAAUUCGUACCAUAGAGAGGUUAGCCGCUCGCCGAGAUCGGAAGAGCACACGU
B9: target 1 C6U,G13A (mixed)
RNA 1: CACCCGUGCAAAAAUGCAGGGGUCUAAAACUGAGCGGAUAACCUCUCUAUGG
RNA 2: GGGAAUGGAUCCACAUCUACGAAUUCGUACCAUAGAGAAGUUAUCUGCUCACCGAGAUCGGAAGAGCACACGU
B10: target 1 U19G,A20U (mixed)
RNA 1: CACCCGUGCAAAAAUGCAGGGGUCUAAAACUGAGCGGAUAACCUCUCUAUGG
RNA 2: GGGAAUGGAUCCACAUCUACGAAUUCGUACCUGAGAGAGGUUAUCCGCUCACCGAGAUCGGAAGAGCACACGU
B11: target 1 insC 3' of 14,insC 3' of 10 (mixed)
RNA 1: CACCCGUGCAAAAAUGCAGGGGUCUAAAACUGAGCGGAUAACCUCUCUAUGG
RNA 2: GGGAAUGGAUCCACAUCUACGAAUUCGUACCAUAGAGACGGUUCAUCCGCUCACCGAGAUCGGAAGAGCACACGU
B12: target 1 U3G,C4U (mixed)
RNA 1: CACCCGUGCAAAAAUGCAGGGGUCUAAAACUGAGCGGAUAACCUCUCUAUGG
RNA 2: GGGAAUGGAUCCACAUCUACGAAUUCGUACCAUAGAGAGGUUAUCCGUGCACCGAGAUCGGAAGAGCACACGU
B13: target 1 C4A,A9C (mixed)
RNA 1: CACCCGUGCAAAAAUGCAGGGGUCUAAAACUGAGCGGAUAACCUCUCUAUGG
RNA 2: GGGAAUGGAUCCACAUCUACGAAUUCGUACCAUAGAGAGGUUCUCCGAUCACCGAGAUCGGAAGAGCACACGU
B14: target 1 insU 3' of 9,insC 3' of 9 (mixed)
RNA 1: CACCCGUGCAAAAAUGCAGGGGUCUAAAACUGAGCGGAUAACCUCUCUAUGG
RNA 2: GGGAAUGGAUCCACAUCUACGAAUUCGUACCAUAGAGAGGUUAUCUCCGCUCACCGAGAUCGGAAGAGCACACGU
B15: target 1 insG 3' of 18,insG 3' of 18 (mixed)
RNA 1: CACCCGUGCAAAAAUGCAGGGGUCUAAAACUGAGCGGAUAACCUCUCUAUGG
RNA 2: GGGAAUGGAUCCACAUCUACGAAUUCGUACCAUAGGGAGAGGUUAUCCGCUCACCGAGAUCGGAAGAGCACACGU
B16: target 1 insC 3' of 22,insA 3' of 15 (mixed)
RNA 1: CACCCGUGCAAAAAUGCAGGGGUCUAAAACUGAGCGGAUAACCUCUCUAUGG
RNA 2: GGGAAUGGAUCCACAUCUACGAAUUCGUACCCAUAGAGAAGGUUAUCCGCUCACCGAGAUCGGAAGAGCACACGU
B17: target 1 insA 3' of 8,insU 3' of 7 (mixed)
RNA 1: CACCCGUGCAAAAAUGCAGGGGUCUAAAACUGAGCGGAUAACCUCUCUAUGG
RNA 2: GGGAAUGGAUCCACAUCUACGAAUUCGUACCAUAGAGAGGUUAUACUCGCUCACCGAGAUCGGAAGAGCACACGU
B18: target 1 insC 3' of 22,insU 3' of 12 (mixed)
RNA 1: CACCCGUGCAAAAAUGCAGGGGUCUAAAACUGAGCGGAUAACCUCUCUAUGG
RNA 2: GGGAAUGGAUCCACAUCUACGAAUUCGUACCCAUAGAGAGGUUUAUCCGCUCACCGAGAUCGGAAGAGCACACGU
B19: target 1 U11C,C22A (mixed)
RNA 1: CACCCGUGCAAAAAUGCAGGGGUCUAAAACUGAGCGGAUAACCUCUCUAUGG
RNA 2: GGGAAUGGAUCCACAUCUACGAAUUCGUAACAUAGAGAGGCUAUCCGCUCACCGAGAUCGGAAGAGCACACGU
B20: target 1 insU 3' of 5,insU 3' of 2 (mixed)
RNA 1: CACCCGUGCAAAAAUGCAGGGGUCUAAAACUGAGCGGAUAACCUCUCUAUGG
RNA 2: GGGAAUGGAUCCACAUCUACGAAUUCGUACCAUAGAGAGGUUAUCCGUCUCUACCGAGAUCGGAAGAGCACACGU
B21: target 1 insU 3' of 18,insC 3' of 10 (mixed)
RNA 1: CACCCGUGCAAAAAUGCAGGGGUCUAAAACUGAGCGGAUAACCUCUCUAUGG
RNA 2: GGGAAUGGAUCCACAUCUACGAAUUCGUACCAUAUGAGAGGUUCAUCCGCUCACCGAGAUCGGAAGAGCACACGU
B22: target 1 C2A,A9G (mixed)
RNA 1: CACCCGUGCAAAAAUGCAGGGGUCUAAAACUGAGCGGAUAACCUCUCUAUGG
RNA 2: GGGAAUGGAUCCACAUCUACGAAUUCGUACCAUAGAGAGGUUGUCCGCUAACCGAGAUCGGAAGAGCACACGU
B23: target 1 insU 3' of 6,insA 3' of 3 (mixed)
RNA 1: CACCCGUGCAAAAAUGCAGGGGUCUAAAACUGAGCGGAUAACCUCUCUAUGG
RNA 2: GGGAAUGGAUCCACAUCUACGAAUUCGUACCAUAGAGAGGUUAUCCUGCUACACCGAGAUCGGAAGAGCACACGU
B24: target 1 insG 3' of 22,insU 3' of 6 (mixed)
RNA 1: CACCCGUGCAAAAAUGCAGGGGUCUAAAACUGAGCGGAUAACCUCUCUAUGG
RNA 2: GGGAAUGGAUCCACAUCUACGAAUUCGUACGCAUAGAGAGGUUAUCCUGCUCACCGAGAUCGGAAGAGCACACGU
B25: target 1 insU 3' of 22,insG 3' of 4 (mixed)
RNA 1: CACCCGUGCAAAAAUGCAGGGGUCUAAAACUGAGCGGAUAACCUCUCUAUGG
RNA 2: GGGAAUGGAUCCACAUCUACGAAUUCGUACUCAUAGAGAGGUUAUCCGCGUCACCGAGAUCGGAAGAGCACACGU
B26: target 1 insC 3' of 10,insU 3' of 4 (mixed)
RNA 1: CACCCGUGCAAAAAUGCAGGGGUCUAAAACUGAGCGGAUAACCUCUCUAUGG
RNA 2: GGGAAUGGAUCCACAUCUACGAAUUCGUACCAUAGAGAGGUUCAUCCGCUUCACCGAGAUCGGAAGAGCACACGU
B27: target 1 insA 3' of 17,insC 3' of 16 (mixed)
RNA 1: CACCCGUGCAAAAAUGCAGGGGUCUAAAACUGAGCGGAUAACCUCUCUAUGG
RNA 2: GGGAAUGGAUCCACAUCUACGAAUUCGUACCAUAGAACGAGGUUAUCCGCUCACCGAGAUCGGAAGAGCACACGU

Among the data in publication PMC10786891, “Massively parallel profiling of RNA-targeting CRISPR-Cas13d” are Kd values, retold here.

The data set has as its target T1, EsCas13d, nuclease-dead. Kind of data set: crRNA (strand 1, pre-loaded); Mg2+; 40 mM Tris-HCl pH 7.5, 150 mM NaCl, 6 mM MgCl2, 1 mM DTT, 0.1% Tween-20, 0.2 mg/ml BSA; 25 C; 10 min per concentration, then washed. As to conditions: tags: His6-TwinStrep-SUMO cleaved; N-terminal SNAP kept (SNAP-Surface 488); label: 3' end held by stalled T7 RNA polymerase.
By Kd is commonly meant the constant that tells how readily two partners part at equilibrium. A lower Kd goes with tighter binding. In turn, B1 came in with a Kd of 29.6 ± 2.1 nM.

In turn, B2 registered a Kd of 11.7 ± 0.7 nM.

On to B3, for which the dissociation constant Kd stood at 11.5 ± 0.6 nM.

Molecule B4 showed a Kd of 53 ± 6 nM.

Consider B5, for which binding was characterised by a dissociation constant (Kd) of 39 ± 3.5 nM.

Take B6: the Kd stood at 14.3 ± 1.2 nM.

The molecule B7 returned a Kd of 15.6 ± 0.7 nM.

As to B8, the Kd came out at 24.5 ± 1.8 nM. Against the preceding molecule, the Kd is about 1.6-fold higher.

Consider B9, for which the Kd is 9 ± 1.1 nM.

Consider B10, for which the equilibrium dissociation constant (Kd) was found to be 96 ± 35 nM.

B11: binding was put at a Kd of 55 ± 22 nM.

B12 yielded a Kd of 7.2 ± 0.6 nM.

The molecule B13 had a Kd of 7.1 ± 0.7 nM.

Take B14: the Kd was 21.5 ± 1.6 nM.

As to B15, the Kd came to 48 ± 4 nM.

Take B16: the Kd is 10.9 ± 0.8 nM.

B17 came in with a Kd of 12.8 ± 0.5 nM. This Kd and that of the molecule before are within 1.5-fold of each other.

B18 showed a Kd of 16.8 ± 1.2 nM.

B19 showed a Kd of 21.3 ± 1.5 nM.

In turn, B20 displayed a Kd of 14.8 ± 1.3 nM.

The molecule B21 displayed a Kd of 65 ± 24 nM.

B22 had a Kd of 11.7 ± 0.9 nM.

B23 showed a Kd of 8.07 ± 0.3 nM.

As for B24, the Kd was 49 ± 7 nM.

B25 gave a Kd of 22.3 ± 1.5 nM.

In the case of B26, the Kd turned out to be 12.7 ± 1.1 nM.

In turn, B27 gave a Kd of 11.6 ± 0.7 nM.
